Measured values as given in US20260256879A1, “COMBINATION THERAPY WITH MEK INHIBITORS FOR THE TREATMENT OF CANCER” (FUNDACIÓ PRIVADA INSTITUT D'INVESTIGACIÓ ONCOLÒGICA DE VALL …, priority 2023, published 2026).

System: SkMel28 cells
Test: AlamarBlue cell viability, 5 days of treatment, alone or in combination; synergy by SynergyFinder 3.0 (ZIP)
Assay type: cell-based, human
Conditions: SkMel28, 5 days, FIG. 1A
Description: Omomyc in Combination with MEK Inhibitors Acts Synergistically in Decreasing the Viability of Melanoma Cancer Cells Two human melanoma cell lines with mutations in BRAF (BRAF^V600E) (SkMel28 and SkMel37) were used. Cells were plated in 96 well plates and treated on the following day with increasing concentrations of Trametinib and Omomyc, alone or in combination. After 5 days of treatment, media was removed and AlamarBlue™ Cell Viability Reagent was added to each well, incubated for 3 hours until metabolized, and fluorescence was read with a microplate reader using an excitation between 530-560 and an emission at 590 nm.
Synergy was evaluated using SynergyFinder 3.0 web application derived from Ianevsky A et al. Nucleic Acids Res. 2022; 50(W1):W739-W743.
Synergy scores can be interpreted as the average excess response due to drug interactions. Synergy scores close to 0 give limited confidence in synergy or antagonism. So, when the synergy scores are: less than −10, the interaction between two drugs is likely to be antagonistic. From −10 to 10, the interaction between two drugs is likely to be additive. Greater than 10, the interaction between two drugs is likely to be synergistic.

B1: Omomyc: Mutated bHLHZip domain of Myc (E61T, E68I, R74Q, R75N); tested polypeptide is SEQ ID NO: 4, N-terminal methionine, produced in E. coli (protein)
chain: MTEENVKRRTHNVLERQRRNELKRSFFALRDQIPELENNEKAPKVVILKKATAYILSVQAETQKLISEIDLLRKQNEQLKHKLEQLRNSCA
modifications: N-terminal methionine
effect of single agent on viability of the cells: reduces the viability
